The source of these data is PMC9938897, “CvkR is a MerR-type transcriptional repressor of class 2 type V-K CRISPR-associated transposase systems”.

Positions count from the first letter of the chain named.

The target of series [1] is T1, CvkR (Alr3614) (Anabaena sp. PCC 7120, UniProt A0ACD6B984 19-168). Briefly: EMSA; EMSA: 10 mM Tris-HCl pH 8.0, 25 mM MgCl2, 50 mM NaCl, 1 mM DTT, 1 mM EDTA, 50 ug/mL poly(dI-dC), 0.01% NP-40, 10% glycerol, 2 nM probe, 25 C 30 min; footprinting: 50 mM Tris-HCl pH 8.0, 100 mM KCl, 2.5 mM MgCl2, 0.2 mM DTT, 10% glycerol, 2 ug salmon sperm DNA, RT. Particulars: protein: recombinant; tags: 6xHis-SUMO removed by Ulp1 (BamHI site; possible vector residues at N-term); chain copies: 2; label: 5'-biotin; blunt. For orientation: Mobility shift assays separate free from complexed probe on a gel.
T1 sequence (A0ACD6B984 entry or part of it): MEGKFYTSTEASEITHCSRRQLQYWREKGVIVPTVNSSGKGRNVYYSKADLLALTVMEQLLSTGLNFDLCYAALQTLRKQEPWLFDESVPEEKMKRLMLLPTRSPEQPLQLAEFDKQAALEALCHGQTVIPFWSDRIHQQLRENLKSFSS

For series [2], the target named is CvkR R42E (Anabaena sp. PCC 7120, UniProt A0ACD6B984 19-168, R60E). Described as above. To be noted: protein: recombinant; tags: 6xHis-SUMO removed by Ulp1; chain copies: 2; label: 5'-biotin; blunt.
Chain of CvkR R42E (A0ACD6B984 entry or part of it R60E | R42E R42E): as the sequence (A0ACD6B984 entry or part of it) above, with R42E counted along it
Series [3] has as its target CvkRmut (Anabaena sp. PCC 7120, UniProt A0ACD6B984 19-168, R37A;R38A;Q41A;K58A;R60A;N84A). The series is described as above. To be noted: protein: recombinant; tags: 6xHis-SUMO removed by Ulp1; chain copies: 2; label: 5'-biotin; blunt.
Series [4] deals with T1, CvkR (Alr3614). The series can be described thus: EMSA; no effect of mutation; EMSA: 10 mM Tris-HCl pH 8.0, 25 mM MgCl2, 50 mM NaCl, 1 mM DTT, 1 mM EDTA, 50 ug/mL poly(dI-dC), 0.01% NP-40, 10% glycerol, 2 nM probe, 25 C 30 min; footprinting: 50 mM Tris-HCl pH 8.0, 100 mM KCl, 2.5 mM MgCl2, 0.2 mM DTT, 10% glycerol, 2 ug salmon sperm DNA, RT. To be noted: protein: recombinant; tags: 6xHis-SUMO removed by Ulp1 (BamHI site; possible vector residues at N-term); chain copies: 2; label: 5'-biotin; blunt.

Chain of CvkRmut (A0ACD6B984 entry or part of it R37A;R38A;Q41A;K58A;R60A;N84A): as the sequence (A0ACD6B984 entry or part of it) above, with R19A, R20A, Q23A, K40A, R42A, N66A counted along it

B1: Pcas12k (dsDNA)
DNA 1: AAGAAACATCCTATAGAAGCATCTTCTAAAACACATTAGTGCTTTGTATAACATTATGTGTTTTGTATGGTATTTTATTTTTA
DNA 2: TAAAAATAAAATACCATACAAAACACATAATGTTATACAAAGCACTAATGTGTTTTAGAAGATGCTTCTATAGGATGTTTCTT
On to B1, for which, in series [1], the binding result is recorded as “binds”.

B2: P43 (dsDNA)
DNA 1: TGCTTTGTATAACATTATGTGTTTTGTATGGTATTTTATTTTT
DNA 2: AAAAATAAAATACCATACAAAACACATAATGTTATACAAAGCA
For B2, in series [1], the binding result was “binds”.

B3: PpsbAI (dsDNA)
DNA 1: GGAATAATTAACATTAAGAATTATTAATTCATGGGTTTTTAGTCTAGTAAATTTGCGTGAATTCATGTAAATTTTATGAG
DNA 2: CTCATAAAATTTACATGAATTCACGCAAATTTACTAGACTAAAAACCCATGAATTAATAATTCTTAATGTTAATTATTCC
As for B3, the binding result in series [1] was “no binding”.

B4: Pwt (dsDNA)
DNA 1: TTGTATAACATTATGTGTTTTGTATGGTATTTT
DNA 2: AAAATACCATACAAAACACATAATGTTATACAA
Turning to B4, the binding result in series [2] is given as “no binding”; in series [1], “binds”; in series [3] it was “no binding”.

B5: P15-5 (dsDNA)
DNA 1: B4 DNA 1 with T12A
DNA 2: B4 DNA 2 with A22T
For B5, the binding result in series [4] is reported as “binds”.

B6: PtnsBcenter (dsDNA)
DNA 1: TTTAGAATAACATTATGTATTTATAAATTACCTTTGTTTCA
DNA 2: TGAAACAAAGGTAATTTATAAATACATAATGTTATTCTAAA
As to B6, the binding result in series [1] was “binds”.

B7: P45 (dsDNA)
DNA 1: TAAGAAACATCCTATAGAAGCATCTTCTAAAACACATTAGTGCTTT
DNA 2: AAAGCACTAATGTGTTTTAGAAGATGCTTCTATAGGATGTTTCTTA
Regarding B7, in series [1], the binding result is recorded as “no binding”.

B8: Ptracr (dsDNA)
DNA 1: TTAGCCCTCTATGCTTATAGTCTCCGCCTAGCTAGGCGAAGTTGACAAACATCTGAACCTTGAAAATATAATATGTAATA
DNA 2: TATTACATATTATATTTTCAAGGTTCAGATGTTTGTCAACTTCGCCTAGCTAGGCGGAGACTATAAGCATAGAGGGCTAA
Turning to B8, the binding result in series [1] is recorded as “no binding”.

B9: PtnsB (dsDNA)
DNA 1: AAAGGTTTTGTATATTTTCATAATGACAAATTGACTGTCGTTTTCTCCACGTTTAGAATAACATTATGTATTTATAAATT
DNA 2: AATTTATAAATACATAATGTTATTCTAAACGTGGAGAAAACGACAGTCAATTTGTCATTATGAAAATATACAAAACCTTT
As for B9, the binding result in series [1] is recorded as “binds”.

B10: Pcas12kcenter (dsDNA)
DNA 1: CTAAAACACATTAGTGCTTTGTATAACATTATGTGTTTTGTAT
DNA 2: ATACAAAACACATAATGTTATACAAAGCACTAATGTGTTTTAG
With B10, the binding result in series [1] is given as “binds”.
